For this assay, the target named is GLUT4 template complex Munc18-3:Syntaxin-4:VAMP2 (rat | not stated) (UniProt Q08850). The assay is described as follows: optical tweezers.

B1: full-length cysteine-free SNAP-23 ([change], [change], [change], [change], [change]) (natural protein)
chain: MDDLSPEEIQLRAHQVTDESLESTRRILGLAIESQDAGIKTITMLDEQGEQLNRIEEGMDQINKDMREAEKTLTELNKSSGLSVSPSNRTKNFESGKNYKATWGDGGDSSPSNVVSKQPSRITNGQPQQTTGAASGGYIKRITNDAREDEMEENLTQVGSILGNLKNMALDMGNEIDAQNQQIQKITEKADTNKNRIDIANTRAKKLIDS
The molecule B1 returned a probability of SNAP-23 binding of 0.42.

The record behind these values is paper PMC9894263.
